Measured values reported in IntAct's records for PubMed 15965486.

Each substance was assayed against vps35_mouse Vps35 (UniProt Q9EQH3).

effect of a mutation on the interaction	Substance
disrupting interaction strength	Vacuolar protein sorting-associated protein 29 (Mus musculus) (from UniProt Q9QZ88-1) I91S
decreasing interaction strength	Vacuolar protein sorting-associated protein 29 (Mus musculus) (from UniProt Q9QZ88-1) N39D
decreasing interaction strength	Vacuolar protein sorting-associated protein 29 (Mus musculus) (from UniProt Q9QZ88-1) V90D
